Molecular target: the molecule itself
Assay: SEC

| Protein | binding result |
| --- | --- |
| PafE-PafE linear dimer (PafE_(1-155)-PafE_(1-174)) (other) MVIGLSTGSDDDDVEVIGGVDPRLIAVQENDSDESSLTDLVEQPAKVMRIGTMIKQLLEEVRAAPLDEASRNRLRDIHATSIRELEDGLAPELREELDRLTLPFNEDAVPSDAELRIAQAQLVGWLEGLFHGIQTALFAQQMAARAQLQQMRQGAGSGNSMVIGLSTGSDDDDVEVIGGVDPRLIAVQENDSDESSLTDLVEQPAKVMRIGTMIKQLLEEVRAAPLDEASRNRLRDIHATSIRELEDGLAPELREELDRLTLPFNEDAVPSDAELRIAQAQLVGWLEGLFHGIQTALFAQQMAARAQLQQMRQGALPPGVGKSGQHGHGTGQYL | binds |
| His6-PafE, wild type, purified alone (natural protein) MVIGLSTGSDDDDVEVIGGVDPRLIAVQENDSDESSLTDLVEQPAKVMRIGTMIKQLLEEVRAAPLDEASRNRLRDIHATSIRELEDGLAPELREELDRLTLPFNEDAVPSDAELRIAQAQLVGWLEGLFHGIQTALFAQQMAARAQLQQMRQGALPPGVGKSGQHGHGTGQYL | binds |
| PafE_(F138E) (natural protein) MVIGLSTGSDDDDVEVIGGVDPRLIAVQENDSDESSLTDLVEQPAKVMRIGTMIKQLLEEVRAAPLDEASRNRLRDIHATSIRELEDGLAPELREELDRLTLPFNEDAVPSDAELRIAQAQLVGWLEGLFHGIQTALEAQQMAARAQLQQMRQGALPPGVGKSGQHGHGTGQYL | binds |
| PafE_(P65G) (natural protein) MVIGLSTGSDDDDVEVIGGVDPRLIAVQENDSDESSLTDLVEQPAKVMRIGTMIKQLLEEVRAAGLDEASRNRLRDIHATSIRELEDGLAPELREELDRLTLPFNEDAVPSDAELRIAQAQLVGWLEGLFHGIQTALFAQQMAARAQLQQMRQGALPPGVGKSGQHGHGTGQYL | binds |

From doi:10.1101/249060 (bioRxiv, 2018)
